Experiment: protease stability score; higher = more stable; yeast display proteolysis, trypsin and chymotrypsin;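 also: relative to predicted unfolded state with 0 unfolded-like and 1 meaning tenfold more protease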

Row | Sequence | protease stability score
1 | SEEEELATEIFRKWIELLETGDEHTFRELADPDYRLIILYGDFIINDIGRERAIERWKQHLKQFDHWEIIIDRERVVNGVVHVDGILVLRINGREHNRRVKIELFIFDGRMKEVDIHID | 2.6
2 | SEEEELAVKMWEIWLRSFLTGDETRLDQMMDPHAKLERIINGKRQHTHGWENVLKELIRLADELRVEHIHIRSEHRQGEKLDVKGEIDGDINGVRRRVEVDIHLVIVDGRIRHVKEVIR | 1.12
3 | SEEEELDKKAFKLWIHSLRTGDEDLITELADPRVKMTIGDKEFHGREEFKHAMHELLKRVDHIKDVKLKHWDVINGRLHVIVEVNGNVDGRETYIETSMTSLKINGRWILQSWSVR | 1.31
4 | SEEEELDRRITDLIVHARKTGDEEMWQRYADPHVRLFWFQGDYLLMIVGREDASKWMRHLLEELGIKHIEFKHIDIFDGRSHIDSRVKVNGKERETRHQFVVVNGRITEVREKID | 0.415
5 | SEEEELEEFFIHLMIRMWDTGDFRTFKRLADPNVRLEVNGRHVVGREEVERLLRELLELLGADVIIHRDRDRDKFNGVIVVIIHGQIRQGDKFFDTHLHFVIEKVDGRWLLKSIHIEIR | 1.5
6 | SEEEELEERLTRYWLHAFWTGDWEHLKEMADPDARHRLHFENHTESVHGREYLVLIYVRIIRNLGFKHLEIDHVRVVDGVFRIHGILEVNGRKQRVHIIVVIVNGRLRELVLIFG | 1.41
7 | SEEEELFEIAIRIFLHILHTGNEEDFHRFADPNMRMIIGDKEHHGWEEVFKWFEFVFRHARIKDTEIKSVRIINGRVHNEGRVNININGVEVIKEVHLVSEKVDGKWVLKRVEIR | 1.52
8 | SEEEELFRKLVNLFLRDVLTGDEESLIELMDPDVRVDINGRKNVGWEEVANTWKQMRIRDFEYREVEYYNGQARIHGVRDGNINGVDERTEIEISMSIVDGRLKHVRVHVR | 2.09
9 | SEEEELHDEHLKKIYTALLTGDFDTFRNMVDPHVRLDWNGVRLHGREVVVRTMIELGADHIEIKEVSFQGDKVDLHFREKVNGKEFRVRIEKQKFNGQWSISSEHQR | 1.14
10 | SEEEELHEILLHLLLLMHTTGDEHLLRRLADPNARVDINGREWHGRDLMVKFLVEIRIHRTRIHDERDIDGRVHMETRVDGLWNGVRYTFDTRIHAVKVNGRWLLESYSVE | 1.21
11 | SEEEELHRLLRERYIKNALTGNEKHLRRLADPNTRNNVNGRTHHGWDFYTDMISRLGADHVQIHDRHVDIQGEYIDVHLEVELNINGKHHRLDVRIIILKVDGKWTLHSFEML | 0.553
12 | SEEEELIEYILELWMHAYVTGDEDVVHEMADPNVRIQVGDKKFIGRKTFSETIHELLNRVDHFRLHIRDYKVINGKAIMHIELHYRVNGKDIHHHVDIDVHKINGRWIVKSIHYR | 1.83
13 | SEEEELIHILERLIIEFRRTGNEEAWMNLMDPHAKVEIGDFDLIGRDEVSRWLHHLRIDDIHITLRRFRDIDGRVISYGEENIRVDFNGQHVEFRRRSILILFKVDGQWYIESIHVH | 0.959
14 | SEEEELLEHAYRHLIHTILTGDERLIEEMLDPNVRISIGEYHSHGREEAIRDVHELGIKHSERLHLTHVDSQGNKVRLHVEFVTNVNGVRRHVTVTWHIIKVNGKWYIESWDHQ | 1.83
15 | SEEEELLRRIMKRVIHEWLTGDEDSFKELADPNVRVENIVDGRNIEAVGRDEAEHVWRHFDKHLGVDHRELKEFHVFDGVIRVRMKLKIGDKEIEMHLKFIIIDGRFTRVHSHSV | 1.31
16 | SEEEELLRRITDEMIESMLTGDEKYILENVDPNVRLHIGDKTYVGWETYEDHMRERLEKLGADHMKLEHKDHQGNYTLIEGNLSFNGRELEVRIKLIIVNGVLEQVEVRFD | 0.955
17 | SEEEELLRRLFELFYKIWHTGDFRSLYENADPNTQLDVGDKRFHGMEVVIEALRQIWEKFGFKVELIDEHHVINGQINMDGLLDINGKKMKTHINLRLIDGVMKTIRIDIR | 0.049
18 | SEEEELMKKAMNTILESLKTGDFHTLENLVDPTARSDINGVILHGRELMHHEWERLLRELGVDVWEINEIHLRYVDGVVRIDIDGKVIIGDKSRTVHLRIIAHKIDGRWHIHSISFEVR | 1.83
19 | SEEEELNQKLLEEIIQILITGDWRALLELADPNVRSEVNGVELHGMETHARHLLEMLEKYPNIQVRIHHLEVQGEKIIIHGTIHFNGRDLRLTLVWHVVNGRWKEVRSELR | 1.35
20 | SEEEELQRQLIEEFIRNRLTGDEDRLLELMDPNVRVRVGEKHAHGREEAIKLWHDHLHHWRIRHLTLRDYRVIDGKIHLHGEIHGEYNGKEHHTRTTIIIVHIDGRLRSIRIEID | 2.12
21 | SEEEELRHELAHRWLRAFETGNFHMLLELFDPNTYFEVGDKKFHGREEVSKLLEEIWEHIRFEHVKVREVRLQGDKLHIDGETDGRVNGRDEKRKVEFEVTVINGVIHSVIIRIK | 2.46
22 | SEEEELSEIASRITIEILKTGDEHMLHELADPNARLDVNGVESHGRESVVKSFRMLGVKHWTLRDVKVVDGRVWIHGELHVDGKTRRLILIVEKINGRWVMEEIRIG | 0.817
23 | SEEEELSHTMWRLWVHAVRTGDFRMLEHLADPHVRDVRNINGVTTRLVGREEWRRIVEEEIDKYPNMRVEFEDVRDVGNYVHAHTKSHYDGKTVDTRVELLVVDGRISDFKLHIE | 1.08
24 | SEEEELTEMVARVIVHSLLTGDEENLDHMLDPNVKIDNDIDGKEERLHGREDRRRVNEEWGWSNIHWIVRRIRTQGNKATVDGEIRFDGVTEHVRLIVILFNGKVHLVRLKHL | 0.77
25 | SEEEELTQELFERFHHVLRTGDWREMVHLADPNARNIFENRTIVGREDVSKILSELLQRVKGIRWHIESIHVQGDFLKLDYRMQVGDKSENVEIHYLKFNGKWILKSIRFE | 1.32

Row | Sequence | protease stability score
26 | SEEEELTRITEQLMIEHLRTGDWDELQHLLDPDARLHFNGREFIGREIVIKLKLEKLRDLGMTFRDFHIKSWDSQGDKIHLRVREEVEFNGKNIELDVEIIARKVDGKWFIEQIKVR | 1.1
27 | SEEEELVKKATDHWKNVIKTGDEHTIKKLVDPSARIIINGQEHHGRHMIHTLIHLWGVDKIEVHLRHLHMQGDKLEIINEVRVNGQSSTLTTISTKINGVWQFEEVQLE | 0.902
28 | SEEEELVREHIKRVIHSYETGDWKSFLELFDPNVRLRVGDKELHGRELFIHWLVRLIELLGINHFELILHDVELQGNKAHSDIHSNLTVGDKTEHRKVHLFNLKVNGRWRTQSEHIE | 1.36
29 | SEEEELVRQWLERTTEALLTGDEEYVLHLADPRTRFDVGDKEIHGMEEFLKRHLQLRIHHMHWEVTEIRLIDGVARSTGTLEIIMQQGDKRFRVRIRSEVISEKIDGRWRLRSIKIH | 1.44
30 | SEEEELWEELKELSEEWFETGDEDRLLEMADPHVKVVFNGKHEHGREALRLVLETMKRRFKNATYHPHTIELQGEKVFLKIKVRVGDKEQELEIILIIVDGRLKEIRIHIRIK | 2.62
31 | SEEEELWKMVDHLVHEWLRTGDEDTFSHYADPHARSIVNGKELHGREEFSNLVHKLKEQYPNLTLTIDELRSVGDKITLHITEEFNGVRYDVRIYALKVNGKWLHRYVEVR | 1.54
32 | SEEEELWRLAEETSERIIRTGDFTRLEEMIDPDARMHIDGRTHHGRETISKILLHELTRIKNVKFEIKHKSSQGDWVDIDLILRFDGKTEHIRYYVYKINGQWFLHSIEYH | 1.19
33 | SEEEEMAHRVLEILLYALRTGDEKWMRKLVDPNVRLHVNGVEFHGRDEYTKFLHEHINRFDHFHSLTVTEIRHQGDFIVLHTILNIQWDGRSTRIDIHIIVLKVNGRWLLHSSSIE | 1.25
34 | SEEEEMARRFTDRLLHFTQTGDERLVHEFVDPNARDDVNGREFHGWRSIHDIMRRLGIDHIRIRHIEVQGDKVRSHWQYVFNGVILEVEINTEKVDGRWLIKSVTFK | 1.14
35 | SEEEEMDRHYSNLWNHLMFTGDWHWLEKLVDPHTRTIVDGQERHGREEALKVLKEVLEILGADVIRIHEMRYQGEKSNLVIEIKQGDKRLRVVIEVVVIDGVMHSLDLEIRHE | 0.795
36 | SEEEEMIEKLIRLLVKAHETGDWDTEHELMDPHVRIDINGKEIIGREDWHEHVKRMGFKHSRVEIRIRHLTTQGEKIHIHGELRVIYDIDGRTIDRSTEVHYHLRKINGKWLITEIEIR | 1.69
37 | SEEEEMLHHLSERMTRALRTGDWKTLFELLDPNVRYEQGDKELHGREEMVKHIRHAMERVKNIRIEFTHIDTRLIDGRIHVHIDGRDEFNGVRFKKHIIVHIDKIDGKWFTDNFRLIYE | 1.15
38 | SEEEEMLKHALEILTEVTDTGNWEEYEKLLDPDVRVHIGDKTLVGMEEILRYWMEYFKSLGVDHVETRVKEISHQGDKMHMDTTLRIHQGDKDLEFHVEIHAEKVNGRWFIKEINFE | 1.75
39 | SEEEEMLKIALRIMLHTIHTGDEDLFSELADPNVKIKIDGVELVGWEFAHEWMREHIEQVPNVKLKIHSVKTIDGRVDSDLIRIFDGVTHKIRLISHKINGRWLIETITVN | 0.964
40 | SEEEEMNEELIKIVLHSWKTGDEKHLEENFDPNVKLIVGDKRFIGREHLVKLIDHLIKRYPGLTIHLHDVKIQGNYVHLDTRAHFDGQTYNTRSHARKVDGRWYLTHSHIE | 0.125
41 | SEEEEMTRLALEIFHRVYKTGDEDKYRDLADPHVRLVVGDKTFHGREHYLKFFRHIRIHHSHLDDFEIQGDKAILDTTIDVNINGKRHWIKTHVISVKVNGQWRLHSEELS | 0.178
42 | SEEEEMVKIADELIRRSWDTGDEDLFLHLADPNTRIFFNGRTVHGREEVEKMIRHMRIDHYELKRIDVYNGQVVIHGKIEITVNGVTKTHEVDIIIEKINGKWILRSIHHK | 1.11
43 | SEEEEMVKRLVEIIARMLETGDEDTLLELLDPEPRIEIGDKRFHGWEEFHKEEHKRLREMRVNSTHIEDVKVYNGRARIHLRIDGSIDGRRIEMRSHFIVQKINGRWSITSVIIR | 1.52
44 | SEEEEMVKVALELLKHSLETGDERLMLRQIDPHAKFDVDGKEHHGRDVFREIEERVDVLHLDHVEIQHVHIQGNKLHIHLEMRSTFLFNGRTFHYRLHYEIIMFKFNGKWLITSLQLR | 0.485
45 | SEEEENAHKAMRFLEEVMKTGDEKSWLDLFDPDARIIIGDKHHIGWEHIHELMRRIDHIHDFHVHDVRSQGDKVFVDIKIDGIINGRRYRTRIEVIVRKFDGKWHIDHIQHN | 1.2
46 | SEEEENARRAAEHHEHVLKTGDEDHMTRMFDPNVRVRQGDKEIHGREEFRRLFHELVRRYPNLKFELEDVDVFNGKVVVHMIFWVDGRTIEIHWFIDKFDGQWVVEEVEFR | 1.19
47 | SEEEENIEHSLRIMNENLETGDEHSLAELFDPNAKIDIGDKHLHGRETLITHLVLLGIKHSSIINREYHMIGEWAHINGDLRIEIGDKERHHDVRILSRKIDGRWVVTEFHIR | 1.19
48 | SEEEENILIAYRLIMHSVNTGDESSLLELIDPDYRLDVNGVDIHGREEWYRDQKERFRDAGFKHTEFRFRDLRVQGDKVFLDVEITWHVDGKTIRHRVTMIVLKVNGRWLVESFKVK | 1.48
49 | SEEEENSRLLVELYFRWLVTGNEEVHNKYLDPNMRLEIRIGDKTIETHGREEILRAMREWRIRHVELKDRHVQGDKAHIEGTIIIEFDGRDIERHLNIIIVVINGRIHEIQLHVR | 2.79
50 | SEEEENSRRVLELFRRIFETGDEDTSRRLADPDARVEVGEFHSIGRESFARMLHHLWRELRWKDEKIEHIEVQGDKVHVNGINFVIYNGKEINLTVHLEMQKVDGRWHIHHFKIE | 1.67

From the NTF2 design screens of Basanta et al. (2020)
